Experiment [1] deals with TacAT^WT complex (one H6-TacT with one TacA) (Salmonella enterica subsp. enterica serovar Typhimurium LT2) (UniProt Q8ZL98). As to the kind of experiment: SEC; Superose 12 10/300 GL; 50 mM HEPES pH 7.0 at 4°C, 150 mM NaCl, 20% glycerol; co-purified TacAT complexes applied; molecular weight from a standard curve of gel filtration standards.
Experiment [2] addresses H6-TacT^WT toxin (Gcn5-related N-acetyltransferase TacT) (Salmonella enterica subsp. enterica serovar Typhimurium LT2) (UniProt Q8ZL98). As to the kind of experiment: SEC. (In general: In gel filtration, larger molecules generally elute earlier.)

A word on the stoichiometry N: it is the number of molecules, sites or subunits per partner or assembly.

Sequence of UniProt Q8ZL98 (Q8ZL98 whole entry): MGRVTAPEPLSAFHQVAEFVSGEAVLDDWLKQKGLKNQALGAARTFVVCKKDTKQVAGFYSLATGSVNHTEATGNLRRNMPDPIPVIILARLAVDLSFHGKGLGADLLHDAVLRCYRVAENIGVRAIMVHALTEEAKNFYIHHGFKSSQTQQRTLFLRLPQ

“TacAT^WT complex (one H6-TacT with one TacA) (from UniProt Q8ZL98 1-161)”: the stoichiometry N in experiment [1] worked out at 2.

As to “TacA^WT antitoxin (tagless native TacA) (natural protein)”, in experiment [2], the stoichiometry N turned out to be 1.

Source of the values: publication PMC5449658.
